Measurements: patent US20180100026A1
Values joined by “and” are separate entries in the source; they are usually repeats but may differ in a detail not shown here. Equal values may be shown once.

Key:
Assay in all cases: cell-based or functional assay
[1] = biological target: anti-FITC CAR (FITC-E2 scFv, CD8 hinge and transmembrane region, 41BB and CD3 zeta) on human T cells
[2] = biological target: anti-FITC CAR with the 4D5Flu scFv (LV-EF1a-4D5Flu-BBZ), on transduced human T cells
[3] = biological target: anti-FITC CAR with the 4M5.3 scFv (LV-EF1a-4M5.3-BBZ), on transduced human T cells
[4] = biological target: anti-FITC CAR with the 4-4-20 scFv (LV-EF1a-4-4-20-BBZ), on transduced human T cells
[5] = biological target: anti-FITC CAR with the fully human FITC-E2 scFv (CD8 hinge, 41BB, CD3 zeta), on transduced human T cells
[6] = biological target: CD19 on NALM-6 (CD19+) cells (human) (UniProt P15391)
[7] = biological target: CD33 on MOLM14 cells (human) (UniProt P20138)
CD19 (human) = CD19 (human) (UniProt P15391)
Chain of CD19 (human) (P15391 20-556): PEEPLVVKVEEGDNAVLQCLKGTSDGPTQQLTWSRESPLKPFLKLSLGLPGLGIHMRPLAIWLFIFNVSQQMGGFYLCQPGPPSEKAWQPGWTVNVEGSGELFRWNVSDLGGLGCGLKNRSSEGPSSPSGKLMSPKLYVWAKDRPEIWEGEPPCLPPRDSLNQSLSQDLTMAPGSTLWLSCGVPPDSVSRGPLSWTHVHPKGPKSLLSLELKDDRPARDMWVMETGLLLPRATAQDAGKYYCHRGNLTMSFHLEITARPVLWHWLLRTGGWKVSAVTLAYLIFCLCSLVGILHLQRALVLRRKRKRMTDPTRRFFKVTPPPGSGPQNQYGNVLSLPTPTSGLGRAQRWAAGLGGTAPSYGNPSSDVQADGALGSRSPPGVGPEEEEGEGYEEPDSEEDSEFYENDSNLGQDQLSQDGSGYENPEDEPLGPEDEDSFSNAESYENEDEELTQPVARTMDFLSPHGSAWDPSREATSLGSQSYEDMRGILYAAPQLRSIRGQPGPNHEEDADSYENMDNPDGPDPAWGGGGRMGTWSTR

Chain of CD19 on NALM-6 (CD19+) cells (human) (P15391 20-556): as above
Chain of anti-FITC CAR with the fully human FITC-E2 scFv (CD8 hinge, 41BB, CD3 zeta), on transduced human T cells (chain, as listed by the source limits assumed): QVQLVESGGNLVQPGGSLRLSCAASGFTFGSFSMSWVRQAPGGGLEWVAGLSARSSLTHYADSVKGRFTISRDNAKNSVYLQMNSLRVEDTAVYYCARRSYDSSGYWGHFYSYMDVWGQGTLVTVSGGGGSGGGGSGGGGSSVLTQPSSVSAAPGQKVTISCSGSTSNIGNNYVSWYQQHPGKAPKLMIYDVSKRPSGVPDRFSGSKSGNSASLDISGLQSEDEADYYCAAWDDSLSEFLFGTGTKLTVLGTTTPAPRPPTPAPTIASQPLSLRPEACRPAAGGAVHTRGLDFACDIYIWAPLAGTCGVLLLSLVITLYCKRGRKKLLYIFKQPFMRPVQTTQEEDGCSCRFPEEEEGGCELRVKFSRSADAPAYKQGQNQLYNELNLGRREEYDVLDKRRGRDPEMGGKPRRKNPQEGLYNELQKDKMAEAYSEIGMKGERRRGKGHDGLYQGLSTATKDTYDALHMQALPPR
Chain of CD33 on MOLM14 cells (human) (P20138 18-364): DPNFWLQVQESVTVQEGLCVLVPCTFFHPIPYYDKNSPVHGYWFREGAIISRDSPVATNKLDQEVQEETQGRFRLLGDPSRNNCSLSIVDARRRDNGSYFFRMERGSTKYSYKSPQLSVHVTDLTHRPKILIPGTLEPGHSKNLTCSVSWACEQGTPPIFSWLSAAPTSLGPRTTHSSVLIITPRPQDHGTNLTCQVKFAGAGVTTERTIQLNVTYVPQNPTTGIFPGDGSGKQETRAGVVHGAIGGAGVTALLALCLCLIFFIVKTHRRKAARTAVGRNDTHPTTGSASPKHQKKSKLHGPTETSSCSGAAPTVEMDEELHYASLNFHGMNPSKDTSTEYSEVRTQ

With “anti-CD19 AB-FITC switch (anti-CD19 Fab, clone FMC63, FITC conjugated at light chain glycine 68 and heavy chain serine 74)” the % cytotoxicity, anti-FITC CAR-T + NALM-6 + 10 pM AB-FITC, with 0 nM free fluorescein [1] was 54.8%, the % cytotoxicity, anti-FITC CAR-T + NALM-6 + 10 pM AB-FITC, with 1 nM free fluorescein [1] was 57.1% and 58.1% and the % cytotoxicity, anti-FITC CAR-T + NALM-6 + 10 pM AB-FITC, with 10 nM free fluorescein [1] was 56.2% and 56%. The % cytotoxicity, anti-FITC CAR-T + NALM-6 + 10 pM AB-FITC, with 100 nM free fluorescein [1] was 55.7%, the % cytotoxicity, anti-FITC CAR-T + NALM-6 + 10 pM AB-FITC, with 1000 nM free fluorescein [1] was 50.4% and 50.9% and the % cytotoxicity, anti-FITC CAR-T + NALM-6 + 10 pM AB-FITC, with 10000 nM free fluorescein [1] was 27.4% and 31.6%.

For “anti-CD19 AB-FITC switch (anti-human CD19 Fab, clone FMC63, FITC conjugated at light chain glycine 68 and heavy chain serine 74)”, the % cytotoxicity of CD19+ target cells, FIG. 68A, switch at 0.01 pM [2] was 24% and 29.5%, the % cytotoxicity of CD19+ target cells, FIG. 68A, switch at 0.1 pM [2] was 39.3% and 45.7% and the % cytotoxicity of CD19+ target cells, FIG. 68A, switch at 1 pM [2] was 60.1%. For the same substance, the % cytotoxicity of CD19+ target cells, FIG. 68A, switch at 10 pM [2] was 56.1% and 67.7%, the % cytotoxicity of CD19+ target cells, FIG. 68A, switch at 100 pM [2] was 74.3% and 69.3% and the % cytotoxicity of CD19+ target cells, FIG. 68A, switch at 1000 pM [2] was 84.8%. For the same substance, the % cytotoxicity of CD19+ target cells, FIG. 68A, switch at 10000 pM [2] was 73.6% and 76.9%, the % cytotoxicity of CD19+ target cells, FIG. 68A, switch at 1.00E-04 pM [2] was 6.29% and the % cytotoxicity of CD19+ target cells, FIG. 68B, switch at 0.01 pM [2] was 1.9% and 8.37%. The % cytotoxicity of CD19+ target cells, FIG. 68B, switch at 0.1 pM [2] was 10.9% and 10.4%, the % cytotoxicity of CD19+ target cells, FIG. 68B, switch at 1 pM [2] was 39.4% and 32.9% and the % cytotoxicity of CD19+ target cells, FIG. 68B, switch at 10 pM [2] was 63.2% and 68.1%. The % cytotoxicity of CD19+ target cells, FIG. 68B, switch at 100 pM [2] was 69.4% and 61.2%, the % cytotoxicity of CD19+ target cells, FIG. 68B, switch at 1000 pM [2] was 72.5% and 63.6% and the % cytotoxicity of CD19+ target cells, FIG. 68B, switch at 10000 pM [2] was 69.1% and 66.8%. The % cytotoxicity of CD19+ target cells, FIG. 68A, switch at 0.01 pM [3] was 21%, the % cytotoxicity of CD19+ target cells, FIG. 68A, switch at 0.1 pM [3] was 46.4% and 33.9% and the % cytotoxicity of CD19+ target cells, FIG. 68A, switch at 1 pM [3] was 58.2% and 56.6%. For the same substance, the % cytotoxicity of CD19+ target cells, FIG. 68A, switch at 10 pM [3] was 58.9% and 48.9%, the % cytotoxicity of CD19+ target cells, FIG. 68A, switch at 100 pM [3] was 70.5% and 71.3% and the % cytotoxicity of CD19+ target cells, FIG. 68A, switch at 1000 pM [3] was 83.2%. For the same substance, the % cytotoxicity of CD19+ target cells, FIG. 68A, switch at 10000 pM [3] was 85.7% and 72%, the % cytotoxicity of CD19+ target cells, FIG. 68B, switch at 0.0001 pM [3] was 2% and the % cytotoxicity of CD19+ target cells, FIG. 68B, switch at 0.001 pM [3] was 9.17%. The % cytotoxicity of CD19+ target cells, FIG. 68B, switch at 0.01 pM [3] was 1.15%, the % cytotoxicity of CD19+ target cells, FIG. 68B, switch at 0.1 pM [3] was 25.4% and the % cytotoxicity of CD19+ target cells, FIG. 68B, switch at 1 pM [3] was 28.5% and 27.5%. The % cytotoxicity of CD19+ target cells, FIG. 68B, switch at 10 pM [3] was 58.4%, the % cytotoxicity of CD19+ target cells, FIG. 68B, switch at 100 pM [3] was 60.8% and 65.8% and the % cytotoxicity of CD19+ target cells, FIG. 68B, switch at 1000 pM [3] was 73.4% and 71.5%. The % cytotoxicity of CD19+ target cells, FIG. 68B, switch at 10000 pM [3] was 64.2% and 55.2%, the % cytotoxicity of CD19+ target cells, FIG. 68A, switch at 0.01 pM [4] was 0.526% and the % cytotoxicity of CD19+ target cells, FIG. 68A, switch at 0.1 pM [4] was 32.8% and 33.3%. The % cytotoxicity of CD19+ target cells, FIG. 68A, switch at 1 pM [4] was 52.3%, the % cytotoxicity of CD19+ target cells, FIG. 68A, switch at 10 pM [4] was 64.9% and 66.1% and the % cytotoxicity of CD19+ target cells, FIG. 68A, switch at 100 pM [4] was 71.7% and 65.6%. The % cytotoxicity of CD19+ target cells, FIG. 68A, switch at 1000 pM [4] was 67.8%, the % cytotoxicity of CD19+ target cells, FIG. 68A, switch at 10000 pM [4] was 74.1% and 71.5% and the % cytotoxicity of CD19+ target cells, FIG. 68A, switch at 1.00E-03 pM [4] was 4.97%. The % cytotoxicity of CD19+ target cells, FIG. 68B, switch at 0.1 pM [4] was 14.8% and 10.9%, the % cytotoxicity of CD19+ target cells, FIG. 68B, switch at 1 pM [4] was 36.7% and 37.8% and the % cytotoxicity of CD19+ target cells, FIG. 68B, switch at 10 pM [4] was 59% and 46.7%. The % cytotoxicity of CD19+ target cells, FIG. 68B, switch at 100 pM [4] was 57.9%, the % cytotoxicity of CD19+ target cells, FIG. 68B, switch at 1000 pM [4] was 55.8% and the % cytotoxicity of CD19+ target cells, FIG. 68B, switch at 10000 pM [4] was 68.6%. For the same substance, the % cytotoxicity of CD19+ target cells, FIG. 68A, switch at 0.01 pM [5] was 26.7% and 38.4%, the % cytotoxicity of CD19+ target cells, FIG. 68A, switch at 0.1 pM [5] was 49% and 60.5% and the % cytotoxicity of CD19+ target cells, FIG. 68A, switch at 1 pM [5] was 51% and 75.3%. For the same substance, the % cytotoxicity of CD19+ target cells, FIG. 68A, switch at 10 pM [5] was 62.1% and 75.5%, the % cytotoxicity of CD19+ target cells, FIG. 68A, switch at 100 pM [5] was 69.6% and 80.5% and the % cytotoxicity of CD19+ target cells, FIG. 68A, switch at 1000 pM [5] was 80.6% and 99.8%. For the same substance, the % cytotoxicity of CD19+ target cells, FIG. 68A, switch at 10000 pM [5] was 93.1% and 100%, the % cytotoxicity of CD19+ target cells, FIG. 68A, switch at 1.00E-03 pM [5] was 10.3% and 25.2% and the % cytotoxicity of CD19+ target cells, FIG. 68B, switch at 0.0001 pM [5] was 3.26% and 17%. For the same substance, the % cytotoxicity of CD19+ target cells, FIG. 68B, switch at 0.001 pM [5] was 19.6%, the % cytotoxicity of CD19+ target cells, FIG. 68B, switch at 0.01 pM [5] was 17.4% and the % cytotoxicity of CD19+ target cells, FIG. 68B, switch at 0.1 pM [5] was 15%. The % cytotoxicity of CD19+ target cells, FIG. 68B, switch at 1 pM [5] was 47.4% and 43.2%, the % cytotoxicity of CD19+ target cells, FIG. 68B, switch at 10 pM [5] was 64.6% and 70.1% and the % cytotoxicity of CD19+ target cells, FIG. 68B, switch at 100 pM [5] was 60.7% and 67.6%. The % cytotoxicity of CD19+ target cells, FIG. 68B, switch at 1000 pM [5] was 70.4% and the % cytotoxicity of CD19+ target cells, FIG. 68B, switch at 10000 pM [5] was 72.7% and 75.4%.

In the case of isotype control (Millipore) (antibody), the % cytotoxicity, anti-FITC CAR-T + NALM-6 + 10 pM AB-FITC, with 0 pM isotype (IgG) [6] is reported as 54.6% and 51.4%, the % cytotoxicity, anti-FITC CAR-T + NALM-6 + 10 pM AB-FITC, with 1 pM isotype (IgG) [6] is reported as 48.3% and 48.2% and the % cytotoxicity, anti-FITC CAR-T + NALM-6 + 10 pM AB-FITC, with 10 pM isotype (IgG) [6] is reported as 49.6% and 49.9%. The % cytotoxicity, anti-FITC CAR-T + NALM-6 + 10 pM AB-FITC, with 100 pM isotype (IgG) [6] was 50% and 44.7%, the % cytotoxicity, anti-FITC CAR-T + NALM-6 + 10 pM AB-FITC, with 1000 pM isotype (IgG) [6] was 45.7% and 41.6% and the % cytotoxicity, anti-FITC CAR-T + NALM-6 + 10 pM AB-FITC, with 10000 pM isotype (IgG) [6] was 44.4% and 43%.

For “non-conjugated anti-CD19 Fab (clone FMC63)”, the % cytotoxicity at 0.0001 pM; anti-FITC CAR-T; FIG. 72A [1] was 1.78%, the % cytotoxicity at 0.0001 pM; anti-FITC CAR-T; FIG. 72C [1] was 1.12% and the % cytotoxicity at 0.001 pM; anti-FITC CAR-T; FIG. 72A [1] was 0.731%. For the same substance, the % cytotoxicity at 0.001 pM; anti-FITC CAR-T; FIG. 72B [1] was 2.73%, the % cytotoxicity at 0.001 pM; anti-FITC CAR-T; FIG. 72C [1] was 5.24% and the % cytotoxicity at 0.01 pM; anti-FITC CAR-T; FIG. 72A [1] was 8.15%. It also gave a % cytotoxicity at 0.01 pM; anti-FITC CAR-T; FIG. 72B [1] of 2.04%, a % cytotoxicity at 0.1 pM; anti-FITC CAR-T; FIG. 72A [1] of 1.96% and a % cytotoxicity at 0.1 pM; anti-FITC CAR-T; FIG. 72C [1] of 2.66%. It also gave a % cytotoxicity at 1 pM; anti-FITC CAR-T; FIG. 72A [1] of 4.93%, a % cytotoxicity at 1 pM; anti-FITC CAR-T; FIG. 72B [1] of 3.84% and a % cytotoxicity at 1 pM; anti-FITC CAR-T; FIG. 72C [1] of 1.99%. The % cytotoxicity at 10 pM; anti-FITC CAR-T; FIG. 72A [1] was 3.73% and 2.56%, the % cytotoxicity at 10 pM; anti-FITC CAR-T; FIG. 72B [1] was 4.56% and 2.09% and the % cytotoxicity at 10 pM; anti-FITC CAR-T; FIG. 72C [1] was 1.85% and 9.94%. For the same substance, the % cytotoxicity at 100 pM; anti-FITC CAR-T; FIG. 72A [1] was 4.61% and 8.92%, the % cytotoxicity at 100 pM; anti-FITC CAR-T; FIG. 72B [1] was 3.24% and 1.4% and the % cytotoxicity at 100 pM; anti-FITC CAR-T; FIG. 72C [1] was 4.45% and 12.1%. The % cytotoxicity at 1000 pM; anti-FITC CAR-T; FIG. 72B [1] was 10.5% and 2.6%, the % cytotoxicity at 1000 pM; anti-FITC CAR-T; FIG. 72C [1] was 2.18% and 5.61% and the % cytotoxicity at 10000 pM; anti-FITC CAR-T; FIG. 72A [1] was 11.7% and 1.87%. For the same substance, the % cytotoxicity at 10000 pM; anti-FITC CAR-T; FIG. 72B [1] was 2.58% and the % cytotoxicity at 10000 pM; anti-FITC CAR-T; FIG. 72C [1] was 1.37% and 1.83%.

“anti-CD33 hM195 CD-FITC switch (light chain T113 and heavy chain A117) (Fab)” showed an EC50 of cytotoxicity of anti-FITC CAR-T cells against MOLM14 cells [7] of 0.0185 nM.

“CART-19: second generation CD19 specific CAR with anti-CD19 scFv (clone FMC63), 41BB and CD3zeta, on human T cells” was tested, and the Human IFN-g, CART19 + Nalm-6 (CD19 (human)) was 915 and 924 and 951, the target cell lysis, CART19 + Nalm-6, E:T 0.04:1 (CD19 (human)) was 12.6 and 13 and the target cell lysis, CART19 + Nalm-6, E:T 0.2:1 (CD19 (human)) was 21.7 and 24.5. The target cell lysis, CART19 + Nalm-6, E:T printed as 1:01 (CD19 (human)) was 52 and 48, the target cell lysis, CART19 + Nalm-6, E:T printed as 5:01 (CD19 (human)) was 75.2 and 73.3 and the target cell lysis, CART19 + Nalm-6, E:T printed as 15:01 (CD19 (human)) was 87.3 and 88.3.
